In paper PMC10397247:
Like-named read-outs stand apart in the source and are kept apart here. Each block holds one binder with its values, some of them ahead of it.

How the values were obtained:
[1] = target: T1, O4-bS; assay: two-hybrid library CCNG1;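 also: natural log of median RNA to DNA barcode read ratio; higher means stronger binding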
T1 chain: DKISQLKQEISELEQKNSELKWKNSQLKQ

[2] = target: T2, O5-bS; assay: two-hybrid library CCNG1;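 also: natural log of median RNA to DNA barcode read ratio; higher means stronger binding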
T2 chain: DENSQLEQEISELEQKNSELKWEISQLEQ

[3] = target: T3, O16-bS; assay: two-hybrid library CCNG1;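 also: natural log of median RNA to DNA barcode read ratio; higher means stronger binding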
T3 chain: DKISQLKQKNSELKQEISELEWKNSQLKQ

[4] = target: T4, O7-bS; assay: two-hybrid library CCNG1;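 also: natural log of median RNA to DNA barcode read ratio; higher means stronger binding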
T4 chain: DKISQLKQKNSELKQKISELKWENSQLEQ

[5] = target: T5, O3-bS; assay: two-hybrid library CCNG1;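 also: natural log of median RNA to DNA barcode read ratio; higher means stronger binding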
T5 chain: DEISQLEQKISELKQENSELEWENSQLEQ

[6] = target: T6, O2-bS; assay: two-hybrid library CCNG1;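 also: natural log of median RNA to DNA barcode read ratio; higher means stronger binding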
T6 chain: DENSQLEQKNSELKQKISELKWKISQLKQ

[7] = target: T7, O9-bS; assay: two-hybrid library CCNG1
T7 chain: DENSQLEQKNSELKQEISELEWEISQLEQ

[8] = target: T8, O15-bS; assay: two-hybrid library CCNG1
T8 chain: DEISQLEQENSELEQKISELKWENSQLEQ

[9] = target: T9, O8-bS; assay: two-hybrid library CCNG1
T9 chain: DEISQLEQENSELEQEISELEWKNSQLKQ

[10] = target: T10, O6-bS; assay: two-hybrid library CCNG1
T10 chain: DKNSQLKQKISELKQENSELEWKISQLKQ

[11] = target: T11, 4H483-AA; assay: two-hybrid library CCmax; conditions: mean of both orientations
T11 chain: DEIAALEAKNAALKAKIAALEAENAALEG

[12] = target: T12, 4H2621-AA; assay: two-hybrid library CCmax; conditions: mean of both orientations
T12 chain: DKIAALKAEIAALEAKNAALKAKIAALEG

[13] = target: T13, 4H1913-AA; assay: two-hybrid library CCmax; conditions: mean of both orientations
T13 chain: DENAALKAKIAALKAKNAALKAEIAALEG

[14] = target: T14, 4H2774-AA; assay: two-hybrid library CCmax; conditions: mean of both orientations
T14 chain: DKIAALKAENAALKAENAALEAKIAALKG

[15] = target: T15, 4H3782-AA; assay: two-hybrid library CCmax; conditions: mean of both orientations
T15 chain: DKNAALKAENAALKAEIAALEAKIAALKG

[16] = target: T16, 4H3629-AA; assay: two-hybrid library CCmax; conditions: mean of both orientations
T16 chain: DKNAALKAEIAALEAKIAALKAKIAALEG

[17] = target: T17, 4H3049-AA; assay: two-hybrid library CCmax; conditions: mean of both orientations
T17 chain: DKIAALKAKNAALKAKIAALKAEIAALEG

[18] = target: T18, 4H3129-AA; assay: two-hybrid library CCmax; conditions: mean of both orientations
T18 chain: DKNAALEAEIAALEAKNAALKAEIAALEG

[19] = target: T19, 4H341-AA; assay: two-hybrid library CCmax; conditions: mean of both orientations
T19 chain: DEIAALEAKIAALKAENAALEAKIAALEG

[20] = target: T20, 4H2580-AA; assay: two-hybrid library CCmax; conditions: mean of both orientations
T20 chain: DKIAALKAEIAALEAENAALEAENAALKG

[21] = target: T21, 4H1867-AA; assay: two-hybrid library CCmax
T21 chain: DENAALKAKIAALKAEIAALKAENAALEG

[22] = target: T22, 4H2903-AA; assay: two-hybrid library CCmax; conditions: mean of both orientations
T22 chain: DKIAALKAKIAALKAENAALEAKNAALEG

[23] = target: T23, 4H2608-AA; assay: two-hybrid library CCmax
T23 chain: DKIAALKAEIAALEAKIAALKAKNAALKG

[24] = target: T24, 4H2728-AA; assay: two-hybrid library CCmax; conditions: mean of both orientations
T24 chain: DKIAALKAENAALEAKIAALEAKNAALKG

[25] = target: T25, 4H3414-AA; assay: two-hybrid library CCmax; conditions: mean of both orientations
T25 chain: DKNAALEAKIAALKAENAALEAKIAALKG

[26] = target: T26, 4H3595-AA; assay: two-hybrid library CCmax; conditions: mean of both orientations
T26 chain: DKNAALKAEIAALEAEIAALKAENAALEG

[27] = target: T27, 4H63-AA; assay: two-hybrid library CCmax; conditions: mean of both orientations
T27 chain: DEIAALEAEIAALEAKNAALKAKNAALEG

[28] = target: T28, 4H3969-AA; assay: two-hybrid library CCmax; conditions: mean of both orientations
T28 chain: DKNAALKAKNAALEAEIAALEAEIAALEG

[29] = target: T29, 4H446-AA; assay: two-hybrid library CCmax; conditions: mean of both orientations
T29 chain: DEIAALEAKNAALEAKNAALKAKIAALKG

[30] = target: T30, 4H3939-AA; assay: two-hybrid library CCmax; conditions: mean of both orientations
T30 chain: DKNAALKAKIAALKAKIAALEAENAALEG

[31] = target: T31, 4H2699-AA; assay: two-hybrid library CCmax; conditions: mean of both orientations
T31 chain: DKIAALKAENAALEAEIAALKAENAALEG

[32] = target: T32, 4H380-AA; assay: two-hybrid library CCmax; conditions: mean of both orientations
T32 chain: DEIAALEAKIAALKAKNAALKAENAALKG

[33] = target: T33, 4H1558-AA; assay: two-hybrid library CCmax
T33 chain: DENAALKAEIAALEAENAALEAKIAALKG

[34] = target: T34, 4H464-AA; assay: two-hybrid library CCmax; conditions: mean of both orientations
T34 chain: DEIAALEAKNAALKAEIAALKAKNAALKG

[35] = target: T35, 4H249-AA; assay: two-hybrid library CCmax; conditions: mean of both orientations
T35 chain: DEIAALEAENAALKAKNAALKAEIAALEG

[36] = target: T36, 4H2961-AA; assay: two-hybrid library CCmax; conditions: mean of both orientations
T36 chain: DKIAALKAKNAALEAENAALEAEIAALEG

[37] = target: T37, Q8-AA; assay: two-hybrid library CCmax; conditions: mean of both orientations
T37 chain: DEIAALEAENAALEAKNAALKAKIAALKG

[38] = target: T38, Q7-AA; assay: two-hybrid library CCmax
T38 chain: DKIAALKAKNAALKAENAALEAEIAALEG

[39] = target: T39, O6-bP; assay: two-hybrid library CCNG1
T39 chain: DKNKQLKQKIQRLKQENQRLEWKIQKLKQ

[40] = target: T40, 4H491-bH; assay: two-hybrid library CCNG1
T40 chain: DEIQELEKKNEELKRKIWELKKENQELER

[41] = target: T41, 4H48-bH; assay: two-hybrid library CCNG1
T41 chain: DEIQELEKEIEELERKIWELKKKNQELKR

[42] = target: T42, 4H3632-bH; assay: two-hybrid library CCNG1
T42 chain: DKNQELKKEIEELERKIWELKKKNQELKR

[43] = target: T43, 4H342-bH; assay: two-hybrid library CCNG1
T43 chain: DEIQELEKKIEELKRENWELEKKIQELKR

[44] = target: T44, 4H496-bH; assay: two-hybrid library CCNG1
T44 chain: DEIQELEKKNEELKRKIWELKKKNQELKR

[45] = target: T45, 4H1985-bN; assay: two-hybrid library CCNG1
T45 chain: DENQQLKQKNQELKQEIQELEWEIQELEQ

[46] = target: T46, 4H3817-bN; assay: two-hybrid library CCNG1
T46 chain: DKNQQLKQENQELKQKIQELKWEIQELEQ

[47] = target: T47, 4H584-bN; assay: two-hybrid library CCNG1
T47 chain: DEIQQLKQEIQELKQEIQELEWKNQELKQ

[48] = target: T48, 4H3974-bN; assay: two-hybrid library CCNG1
T48 chain: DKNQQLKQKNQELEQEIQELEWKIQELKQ

[49] = target: T49, 4H3414-bN; assay: two-hybrid library CCNG1
T49 chain: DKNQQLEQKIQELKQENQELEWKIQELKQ

[50] = target: T50, 4H3129-bN; assay: two-hybrid library CCNG1
T50 chain: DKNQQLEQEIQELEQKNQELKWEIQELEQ

[51] = target: T51, 4H619-bN; assay: two-hybrid library CCNG1
T51 chain: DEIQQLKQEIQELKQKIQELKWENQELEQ

[52] = target: T52, 4H3638-bN; assay: two-hybrid library CCNG1
T52 chain: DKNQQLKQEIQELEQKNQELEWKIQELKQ

[53] = target: T53, 4H906-bN; assay: two-hybrid library CCNG1
T53 chain: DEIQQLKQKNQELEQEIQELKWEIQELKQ

[54] = target: T54, 4H3631-bN; assay: two-hybrid library CCNG1
T54 chain: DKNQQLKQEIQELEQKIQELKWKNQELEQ

[55] = target: T55, 4H570-bN; assay: two-hybrid library CCNG1
T55 chain: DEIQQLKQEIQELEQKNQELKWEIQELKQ

[56] = target: T56, 4H1804-bN; assay: two-hybrid library CCNG1
T56 chain: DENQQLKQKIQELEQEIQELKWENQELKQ

[57] = target: T57, 4H850-bN; assay: two-hybrid library CCNG1
T57 chain: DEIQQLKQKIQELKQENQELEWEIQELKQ

[58] = target: T58, 4H3172-bN; assay: two-hybrid library CCNG1
T58 chain: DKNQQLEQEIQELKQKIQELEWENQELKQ

Binder: DENAALKAEIAALEAENAALEAKIAALKG [4H1558-AA]
interaction score [11]: 0.272
interaction score [12]: 1.29
interaction score [13]: 1.75
interaction score [14]: -0.715
interaction score [15]: -0.467
interaction score [16]: 0.444
interaction score [17]: 1.32
interaction score [18]: 2.15
interaction score [19]: 1.27
interaction score [20]: -1.57
interaction score [21]: -1.23
interaction score [22]: -0.294
interaction score [23]: -1.1
interaction score [24]: -0.226
interaction score [25]: 1.1
interaction score [26]: -1.53
interaction score [27]: -0.799
interaction score [28]: -1.28
interaction score [29]: -0.543
interaction score [30]: -0.411
interaction score [31]: -0.582
interaction score [32]: 1.48
interaction score [33]: 0.452
interaction score [34]: 0.907
interaction score [35]: 1.51
interaction score [36]: -1.19

Binder: DEIQELEKEIEELERKIWELKKKNQELKR [4H48-bH]
interaction score [39]: -0.138
interaction score [40]: 2.29
interaction score [41]: 1.21

Binder: DEIQELEKKIEELKRENWELEKKIQELKR [4H342-bH]
interaction score [42]: 1.55
interaction score [43]: 1.38
interaction score [44]: 0.0247
interaction score [40]: 1.47
interaction score [41]: -0.0388

Binder: DEIAALEAEIAALEAENAALEAENAALEG [Q3-AA]
interaction score [37]: -1.09
interaction score ([38]; mean of both orientations): -1.36

The remaining lines, values ahead:

interaction score [1]: -0.754
interaction score [2]: -1.13
interaction score [3]: 1.93
interaction score [4]: -0.978
interaction score [5]: -3.1
interaction score [6]: -0.919
interaction score [7]: -0.877
interaction score [8]: -0.724
interaction score [9]: -1.05
interaction score [10]: -0.0139
Binder: DEISQLEQENSELEQKISELKWENSQLEQ [O15-bS]

interaction score [37]: 2.38
interaction score [38]: -1.59
Binder: DKIAALKAKNAALKAENAALEAEIAALEG [Q7-AA]

interaction score [45]: 0.201
interaction score [46]: -0.425
interaction score [47]: 0.249
interaction score [48]: -1.87
interaction score [49]: -0.563
interaction score [50]: 0.0855
interaction score [51]: -1.34
interaction score [52]: -0.805
interaction score [53]: -0.241
interaction score [54]: 0.112
interaction score [55]: -0.363
interaction score [56]: 1.58
interaction score [57]: 0.194
interaction score [58]: -0.368
Binder: DENQQLKQKIQELEQEIQELKWENQELKQ [4H1804-bN]
